Experimental data as given in article PMC11564776, “Enzyme stabilisation due to incorporation of a fluorinated non-natural amino acid at the protein surface” (Scientific Reports, 2024).

Substrate: O=CCO
Experiment: HPLC of erythrulose formation, initial velocities, Michaelis-Menten fit
Type: biochemical, Escherichia coli
Settings: 50 mM HPA, 1.36 mM ThDP, 5.1 mM MgCl2, 33 mM Tris.HCl, pH 7.0, assay 21 °C, pre-incubated 15 min at 21 °C, standard error in parentheses
Description: HPLC of erythrulose formation, initial velocities, Michaelis-Menten fit on WT transketolase (WT TK)

B1: WT transketolase (WT TK) (Escherichia coli K-12) (protein)
chain: MSSRKELANAIRALSMDAVQKAKSGHPGAPMGMADIAEVLWRDFLKHNPQNPSWADRDRFVLSNGHGSMLIYSLLHLTGYDLPMEELKNFRQLHSKTPGHPEVGYTAGVETTTGPLGQGIANAVGMAIAEKTLAAQFNRPGHDIVDHYTYAFMGDGCMMEGISHEVCSLAGTLKLGKLIAFYDDNGISIDGHVEGWFTDDTAMRFEAYGWHVIRDIDGHDAASIKRAVEEARAVTDKPSLLMCKTIIGFGSPNKAGTHDSHGAPLGDAEIALTREQLGWKYAPFEIPSEIYAQWDAKEAGQAKESAWNEKFAAYAKAYPQEAAEFTRRMKGEMPSDFDAKAKEFIAKLQANPAKIASRKASQNAIEAFGPLLPEFLGGSADLAPSNLTLWSGSKAINEDAAGNYIHYGVREFGMTAIANGISLHGGFLPYTSTFLMFVEYARNAVRMAALMKQRQVMVYTHDSIGLGEDGPTHQPVEQVASLRVTPNMSTWRPCDQVESAVAWKYGVERQDGPTALILSRQNLAQQERTEEQLANIARGGYVLKDCAGQPELIFIATGSEVELAVAAYEKLTAEGVKARVVSMPSTDAFDKQDAAYRESVLPKAVTARVAVEAGIADYWYKYVGLNGAIVGMTTFGESAPAELLFEEFGFTVDNVVAKAKELL
notes: full length, N-terminal His6 tag (plasmid pQR791), Ni-NTA purified, tag cleavage not mentioned; homodimer of 73-74 kDa monomers; WT expressed in E. coli XL10-Gold, variants in E. coli C321.dA.exp
Question: What does the source list for B1?
Answer: Km: 22 (3) mM; Vmax: 4600 µM/min; kcat: 53.3 s⁻¹; kcat/Km: 2500 M⁻¹ s⁻¹
